From paper PMC4045628 (CellBio, 2014)

Tests used:
[1] = target: T1, HA-tagged wild-type PKC iota (UniProt P41743 1-596); experiment: co-IP
T1 sequence (looked up): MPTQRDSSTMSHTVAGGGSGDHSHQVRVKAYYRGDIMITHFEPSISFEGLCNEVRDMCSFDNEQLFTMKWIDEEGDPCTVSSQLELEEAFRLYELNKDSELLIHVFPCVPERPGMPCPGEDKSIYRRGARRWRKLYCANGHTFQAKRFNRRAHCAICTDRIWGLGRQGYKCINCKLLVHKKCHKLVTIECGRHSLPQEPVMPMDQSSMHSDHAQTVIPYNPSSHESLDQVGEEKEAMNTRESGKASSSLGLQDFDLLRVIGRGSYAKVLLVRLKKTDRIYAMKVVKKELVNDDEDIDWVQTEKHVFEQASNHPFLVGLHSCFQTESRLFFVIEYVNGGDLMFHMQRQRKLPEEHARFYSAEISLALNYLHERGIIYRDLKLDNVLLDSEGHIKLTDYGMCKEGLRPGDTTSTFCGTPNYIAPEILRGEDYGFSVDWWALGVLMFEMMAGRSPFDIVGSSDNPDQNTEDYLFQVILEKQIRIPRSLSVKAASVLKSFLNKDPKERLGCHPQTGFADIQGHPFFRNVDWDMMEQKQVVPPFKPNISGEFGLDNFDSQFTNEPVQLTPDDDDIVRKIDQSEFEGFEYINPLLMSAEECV

[2] = target: HA-tagged kinase-inactive PKC iota (UniProt P41743); experiment: co-IP

fold co-immunoprecipitated relative to PAR-3 [1]: ~10 fold | fold co-immunoprecipitated relative to PAR-3 [2]: 10 fold
B1: PAR-6B (natural protein, rat (endogenous in PC12), UniProt D4A2F2 1-372, looked up)
chain: MNRGHRHGVSSGCLGTMEVKSKFGAEFRRFSLERSKPGKFEEFYGLLQHVHKIPNVDVLVGYADIHGDLLPINNDDNYHKAVSTANPLLRVFIQKKEEADYSAFGTDTLIRKKNVLSNVLRPDNHRKKPHIVISMPQDFRPVSSIIDVDILPETHRRVRLYKYGTEKPLGFYIRDGSSVRVTPHGLEKVPGIFISRLVPGGLAQSTGLLAVNDEVLEVNGIEVSGKSLDQVTDMMIANSRNLIITVRPANQRNNVVRNSRTSGSSGQSTDNSLLGYPQQAGASLEPEDQDSDEDDIIIEGSGEPQQIPKATPEALSLESLTQIELSFESGQNGFSPLQDTSLVAVPSSLDTESESRAPDQKLLEEDGTIITL
